Biological target: RSV strain A2 pre-fusion F, single-chain triple mutant (SC-TM) construct (respiratory syncytial virus subgroup A strain A2)
Assay: crystal structure

RSV strain A2 pre-fusion F, single-chain triple mutant (SC-TM) construct (natural protein)
stoichiometry N: 3
